For 1 molecule, Kd results are on record in PMC6484134 (2019).

What is called Kd is the concentration at which binding is half-saturated. Higher therefore signals a looser complex.

In experiment [1] the target is Cul3NΔ22 (human Cul3 N-terminal domain, residues 23–388, I342R L346D) (human, UniProt Q13618 23-388, I342R | L346D). Briefly: ITC. Background: In ITC the heat of successive injections is recorded.
Experiment [2] has as its target Cul3N (human Cul3 N-terminal domain, residues 1–388, I342R L346D) (human, UniProt Q13618 1-388, I342R | L346D). The experiment can be described thus: ITC.

Sequence of Cul3N (human Cul3 N-terminal domain, residues 1–388, I342R L346D) (Q13618 1-388 I342R/L346D): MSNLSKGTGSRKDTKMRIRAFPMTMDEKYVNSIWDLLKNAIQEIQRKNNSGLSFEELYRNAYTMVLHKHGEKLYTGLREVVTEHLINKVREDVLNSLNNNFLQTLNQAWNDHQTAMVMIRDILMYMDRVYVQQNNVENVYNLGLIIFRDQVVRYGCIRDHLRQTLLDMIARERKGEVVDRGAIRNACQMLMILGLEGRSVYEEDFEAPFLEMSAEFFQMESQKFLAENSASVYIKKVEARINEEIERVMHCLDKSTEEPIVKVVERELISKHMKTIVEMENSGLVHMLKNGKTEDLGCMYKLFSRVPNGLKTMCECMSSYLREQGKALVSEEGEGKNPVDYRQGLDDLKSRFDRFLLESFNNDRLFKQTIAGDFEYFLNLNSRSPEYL
Sequence of Cul3NΔ22 (human Cul3 N-terminal domain, residues 23–388, I342R L346D) (Q13618 23-388 I342R/L346D): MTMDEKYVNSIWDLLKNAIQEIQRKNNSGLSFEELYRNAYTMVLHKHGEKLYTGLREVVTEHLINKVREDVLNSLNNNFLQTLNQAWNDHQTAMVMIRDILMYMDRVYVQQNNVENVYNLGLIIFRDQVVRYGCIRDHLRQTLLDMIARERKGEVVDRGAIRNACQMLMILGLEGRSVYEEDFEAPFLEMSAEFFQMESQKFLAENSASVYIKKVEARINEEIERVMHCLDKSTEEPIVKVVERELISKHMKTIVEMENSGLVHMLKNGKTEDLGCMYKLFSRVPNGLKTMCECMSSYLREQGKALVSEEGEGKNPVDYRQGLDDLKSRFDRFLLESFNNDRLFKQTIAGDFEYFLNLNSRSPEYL

B1: KLHL3-BB (human KLHL3 BTB-BACK domain, residues 24–276) (domain or fragment)
chain: RTITVNPAHMGKAFKVMNELRSKQLLCDVMIVAEDVEIEAHRVVLAACSPYFCAMFTGDMSESKAKKIEIKDVDGQTLSKLIDYIYTAEIEVTEENVQVLLPAASLLQLMDVRQNCCDFLQSQLHPTNCLGIRAFADVHTCTDLLQQANAYAEQHFPEVMLGEEFLSLSLDQVCSLISSDKLTVSSEEKVFEAVISWINYEKETRLEHMAKLMEHVRLPLLPRDYLVQTVEEEALIKNNNTCKDFLIEAMKYH
Consider B1, for which the Kd in experiment [1] was 36.2 nM; in experiment [2], 22.9 nM.
